Measured values published in patent US20160176970A1 (published 2016).

Molecular target: T1, pig α2β1 integrin (pig, UniProt F1SMF4 28-1178; Q9GLP0 21-798)
T1 construct: whole, on cells; Tested with whole blood
Assay: FACS on whole blood, PE-coupled goat anti-mouse IgG

binding result: no binding
B1: anti-α2 integrin mAb purified from hybridoma supernatant (murine) (antibody, mouse IgG2a, kappa)
light: NIVLTQSPASLAVSLGQRATISCRASESVESYGNSFIYWYQQKPGQAPKLLIYLASNLASGVPARFSGSGSRTDFTLTIDPVEADDAATYYCQQNNEDPYTFGGGTKLEIKRADAAPTVSIFPPSSEQLTSGGASVVCFLNNFYPKDINVKWKIDGSERQNGVLNSWTDQDSKDSTYSMSSTLTLTKDEYERHNSYTCEATHKTSTSPIVKSFNRNEC
heavy: QVQLHQPGAELVKPGAPVKLSCKASGYTFTSYWMNWVKQRPGRGLEWIGRIDPSDSETHYNQKFKDKATLTVDKSSSTAYIQLSSLTSEDSAVYYCAKVGRGYFDYWGQGTTLTVSSAKTTAPSVYPLAPVCGDTTGSSVTLGCLVKGYFPEPVTLTWNSGSLSSGVHTFPAVLQSDLYTLSSSVTVTSSTWPSQSITCNVAHPASSTKVDKKIEPRGPTIKPCPPCKCPAPNLLGGPSVFIFPPKIKDVLMISLSPIVTCVVVDVSEDDPDVQISWFVNNVEVHTAQTQTHREDYNSTLRVVSALPIQHQDWMSGKEFKCKVNNKDLPAPIERTISKPKGSVRAPQVYVLPPPEEEMTKKQVTLTCMVTDFMPEDIYVEWTNNGKTELNYKNTEPVLDSDGSYFMYSKLRVEKKNWVERNSYSCSVVHEGLHNHHTTKSFSRTPGK
notes: also called α2 mAb from hybridoma supernatant; anti-α2 integrin monoclonal mouse antibody
